Among the data in US20240368668A1, “SUBSTRATES AND BIOMARKERS OF ADAMTS7” (The Broad Institute, Inc., priority 2021, published 2024) are logFC.mWT.over.Luc values, retold here.

Square brackets hold non-standard residues; d marks the D form. Ends that are not written are not given here.

The target of this assay is T1, mouse ADAMTS7 (Mus musculus, UniProt Q68SA9).
T1 construct: Full-length mouse Adamts7 1-1857 (Uniprot Q68SA9, WT or E373Q catalytic mutant); expressed in transfected cells; host or cells: Human Coronary Artery Smooth Muscle Cells (HCA-SMC, Lonza), adenovirus 50 MOI
T1 sequence (Q68SA9 221-1657): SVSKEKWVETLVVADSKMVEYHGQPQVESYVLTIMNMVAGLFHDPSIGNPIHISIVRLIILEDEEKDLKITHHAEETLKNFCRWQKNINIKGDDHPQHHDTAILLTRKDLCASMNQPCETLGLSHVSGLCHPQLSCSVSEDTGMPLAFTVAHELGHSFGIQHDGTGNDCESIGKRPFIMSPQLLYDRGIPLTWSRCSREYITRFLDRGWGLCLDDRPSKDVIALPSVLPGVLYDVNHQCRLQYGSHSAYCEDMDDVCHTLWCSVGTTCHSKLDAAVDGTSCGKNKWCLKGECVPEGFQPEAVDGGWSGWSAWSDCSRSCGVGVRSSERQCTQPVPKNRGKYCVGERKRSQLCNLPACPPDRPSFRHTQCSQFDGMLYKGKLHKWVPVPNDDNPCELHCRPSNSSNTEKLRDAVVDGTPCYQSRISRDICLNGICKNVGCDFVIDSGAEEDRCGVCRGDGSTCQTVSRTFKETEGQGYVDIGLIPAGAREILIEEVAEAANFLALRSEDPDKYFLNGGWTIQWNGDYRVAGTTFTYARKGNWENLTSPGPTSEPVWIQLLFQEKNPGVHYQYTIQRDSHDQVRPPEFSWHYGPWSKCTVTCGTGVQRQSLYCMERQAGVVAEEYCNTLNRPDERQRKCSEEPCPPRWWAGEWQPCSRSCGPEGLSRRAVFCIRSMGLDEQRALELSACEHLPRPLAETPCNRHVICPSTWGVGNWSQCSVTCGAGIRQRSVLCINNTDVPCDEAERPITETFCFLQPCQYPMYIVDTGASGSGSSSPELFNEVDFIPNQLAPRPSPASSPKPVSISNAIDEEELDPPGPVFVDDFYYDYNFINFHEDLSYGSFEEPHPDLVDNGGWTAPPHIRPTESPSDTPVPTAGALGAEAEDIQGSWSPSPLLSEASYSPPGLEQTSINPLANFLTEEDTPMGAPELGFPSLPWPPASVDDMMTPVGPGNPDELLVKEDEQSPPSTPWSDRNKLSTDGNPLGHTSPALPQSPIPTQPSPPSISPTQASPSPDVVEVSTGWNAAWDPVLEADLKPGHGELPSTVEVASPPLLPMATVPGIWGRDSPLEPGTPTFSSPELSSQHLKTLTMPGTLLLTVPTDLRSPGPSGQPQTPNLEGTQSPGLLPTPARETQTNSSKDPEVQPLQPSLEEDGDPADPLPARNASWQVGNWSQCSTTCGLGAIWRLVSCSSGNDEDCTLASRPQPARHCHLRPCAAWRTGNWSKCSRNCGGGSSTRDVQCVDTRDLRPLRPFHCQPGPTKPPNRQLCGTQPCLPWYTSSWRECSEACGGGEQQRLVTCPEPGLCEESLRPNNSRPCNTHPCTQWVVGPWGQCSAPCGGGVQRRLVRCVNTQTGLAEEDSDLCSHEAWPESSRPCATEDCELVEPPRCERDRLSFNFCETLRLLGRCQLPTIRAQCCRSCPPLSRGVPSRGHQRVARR
Description: TMT10 TAILS N-terminomics, HUVEC experiment (process replicates, trypsin/AspN digest). To be noted: HUVEC TAILS HC; log fold change of N-terminal peptide, Ad-mADAMTS7 WT over Luc. The format is cell-based, human. Put shortly:
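Full-length mouse ADAMTS7 (WT or E373Q mutant, C-terminal 3xFLAG) or luciferase was transduced via adenovirus, 50 MOI, into HCA-SMC (SMC1, SMC2) or HUVEC. SMC1: pooled media, technical triplicates 400 ug; SMC2: process triplicates 300 ug; HUVEC: process triplicates 200 ug, bFGF2 10 ng/ml.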
In the case of “ECM1_108 (QEAVPLQK; listed as Homo sapiens)”, the logFC.mWT.over.Luc turned out to be 2.21. “EFEMP1_125_ (VAGPEMQTGR; listed as Homo sapiens)” returned a logFC.mWT.over.Luc of 2.34. In turn, “ERAP2_718 (ISENLKR; listed as Homo sapiens)” displayed a logFC.mWT.over.Luc of 5.05. “EWSR1_87 (YSQPVQGYGTGAY; listed as Homo sapiens)” registered a logFC.mWT.over.Luc of 1.10. The substance “FN1_34 ([code q]QMVQPQSPVAVSQSKPGCY; not fully specified (residue 3); listed as Homo sapiens)” gave a logFC.mWT.over.Luc of 1.37. The result for “FN1_35 ([code q]MVQPQSPVAVSQSKPGCY; not fully specified (residue 2); listed as Homo sapiens)” reads 2.31; that for “FN1_293 (VYQPQPHPQPPPYGHCVT; listed as Homo sapiens)”, 0.96. Regarding “FN1_607 (SSSGPVEVFIT; listed as Homo sapiens)”, the logFC.mWT.over.Luc is on record as 2.31. In turn, “FN1_1144 (TPGVEYVYTIQVLR; listed as Homo sapiens)” yielded a logFC.mWT.over.Luc of 1.43. The result for “FN1_1780 (LQGLRPGSEYTVSVVALH; listed as Homo sapiens)” reads 1.80; that for “FN1_1805 (LIGTQSTAIPAPT; listed as Homo sapiens)”, 1.47; that for “FN1_2113 (FVTHPGY; listed as Homo sapiens)”, 1.05. The value for “FSTL1_290 (LQKHQETA; listed as Homo sapiens)” was 2.34; that for “LOX_125 (FQAGYSTSR; listed as Homo sapiens)” was 3.82.
